Molecular target: GFP-tagged Pak1 (human) (UniProt Q13153)
Experiment: cell-based or functional assay

Sequence of GFP-tagged Pak1 (human) (Q13153 whole entry A26V/E503D): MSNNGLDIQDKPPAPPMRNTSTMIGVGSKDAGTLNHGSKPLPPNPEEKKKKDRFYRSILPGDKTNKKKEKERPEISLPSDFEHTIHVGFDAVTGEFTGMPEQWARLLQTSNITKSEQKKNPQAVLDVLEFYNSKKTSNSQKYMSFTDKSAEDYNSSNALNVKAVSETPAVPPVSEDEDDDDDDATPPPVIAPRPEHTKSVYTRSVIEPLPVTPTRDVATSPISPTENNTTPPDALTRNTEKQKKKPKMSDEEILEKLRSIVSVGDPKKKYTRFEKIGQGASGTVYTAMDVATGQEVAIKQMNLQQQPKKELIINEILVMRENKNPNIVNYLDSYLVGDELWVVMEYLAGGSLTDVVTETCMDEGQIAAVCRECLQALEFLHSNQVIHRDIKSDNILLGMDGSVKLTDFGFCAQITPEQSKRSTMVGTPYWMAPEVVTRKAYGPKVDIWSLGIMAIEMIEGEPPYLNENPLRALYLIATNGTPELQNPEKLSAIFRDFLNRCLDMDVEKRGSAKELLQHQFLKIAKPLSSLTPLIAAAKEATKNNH

RFP-DLC1-1-66 (from UniProt P61273 1-66)
vesicle formation (macropinocytosis), confocal microscopy of cotransfected SKBR3 cells (% of the transfected cells): > 80
